The target in assay [1] is mouse PRYSPRY-domain of TRIM21 (tripartite-motif containing protein 21) (mouse). Briefly: SPR; TRIM21 PRYSPRY-domain immobilised on a CM5 chip (200 RU); Fc fusions injected; HBS-EP pH 7.4 (0.01 M HEPES, 0.15 M NaCl, 3 mM EDTA, 0.05% Tween 20), 25 °C, 50 μL/min; Biacore 3000; bivalent analyte model (KD1).
For assay [2], the target named is murine neonatal Fc receptor (FcRn), extracellular domain (murine | not stated) (UniProt Q61559). Briefly: SPR; FcRn extracellular domain immobilised on a CM5 chip (600 RU); Fc fusions injected; McIlvaine's phosphate-citrate buffer pH 6.0 with 0.05% Tween 20, 25 °C, 50 μL/min; Biacore 3000; bivalent analyte model (KD1).
UniProt Q61559, sequence (Q61559 whole entry, looked up, the tested form may be a part): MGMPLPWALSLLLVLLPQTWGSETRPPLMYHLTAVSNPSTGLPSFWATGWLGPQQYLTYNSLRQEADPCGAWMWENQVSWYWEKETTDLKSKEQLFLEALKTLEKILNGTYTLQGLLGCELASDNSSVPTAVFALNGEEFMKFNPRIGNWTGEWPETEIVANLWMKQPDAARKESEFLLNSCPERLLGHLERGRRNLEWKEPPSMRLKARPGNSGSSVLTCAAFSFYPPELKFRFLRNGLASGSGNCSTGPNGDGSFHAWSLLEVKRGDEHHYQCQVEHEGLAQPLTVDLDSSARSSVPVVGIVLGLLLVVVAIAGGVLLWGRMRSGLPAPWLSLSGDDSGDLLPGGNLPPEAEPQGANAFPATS

In the case of “Fc-ARP1 fusion protein (mouse IgG1 Fc fused to the anti-rotavirus VHH ARP1) (Fc fusion)”, the Kd stood at 28 nM in assay [1] and 760 nM in assay [2].

Source of the values: paper PMC4954977.
